From paper doi:10.1101/2020.07.08.161463 (bioRxiv, 2020)

Molecular target: the molecule itself
Experiment: SEC-MALS

B1: G domain of SEPT7 (domain or fragment)
chain: YRKSVKRGFEFTLMVVGESGLGKSTLINSLFLTDLYSPEYPGPSHRIKKTVQVEQSKVLIKEGGVQLLLTIVDTPGFGDAVDNSNCWQPVIDYIDSKFEDYLNAESRVNRRQMPDNRVQCCLYFIAPSGHGLKPLDIEFMKRLHEKVNIIPLIAKADTLTPEECQQFKKQIMKEIQEHKIKIYEFPETDDEEENKLVKKIKDRLPLAVVGSNTIIEVNGKRVRGRQYPWGVAEVENGEHCDFTILRNMLIRTHMQDLKDVTNNVHYENYRSRKLAAVT
  stoichiometry N: 2
